T1: mouse IL12Rbeta1 (mouse, UniProt Q60837 20-565, limits assumed)
T1 construct: also called murine IL12Rbeta1; rodent IL12Rbeta1 proteins
T1 sequence (looked up): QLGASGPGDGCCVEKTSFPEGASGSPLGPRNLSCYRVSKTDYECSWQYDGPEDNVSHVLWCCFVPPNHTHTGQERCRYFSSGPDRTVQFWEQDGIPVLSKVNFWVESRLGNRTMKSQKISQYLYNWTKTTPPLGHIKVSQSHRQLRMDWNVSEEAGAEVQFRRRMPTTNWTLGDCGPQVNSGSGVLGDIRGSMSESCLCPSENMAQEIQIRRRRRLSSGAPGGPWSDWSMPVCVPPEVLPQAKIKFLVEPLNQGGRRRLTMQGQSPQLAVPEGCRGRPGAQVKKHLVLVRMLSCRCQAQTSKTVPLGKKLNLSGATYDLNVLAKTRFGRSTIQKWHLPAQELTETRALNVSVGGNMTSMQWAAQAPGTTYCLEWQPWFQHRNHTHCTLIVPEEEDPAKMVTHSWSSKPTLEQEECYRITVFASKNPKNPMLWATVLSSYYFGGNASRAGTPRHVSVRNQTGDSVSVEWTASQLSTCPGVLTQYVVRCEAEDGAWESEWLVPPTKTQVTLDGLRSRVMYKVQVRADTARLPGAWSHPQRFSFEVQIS

B1: mAb1 (MOR11873 with IgG1 LALA Fc variant) (antibody, V domains shown)
VH: QVQLVESGGGVVQPGRSLRLSCAASGFTFTSYGMSWVRQAPGKGLEWVAGISYSGSDTEYADSVKGRFTISRDNSKNTLYLQMNSLRAEDTAVYYCARSPDYIIDYGFDYWGRGTLVTVSS
VL: AIQMTQSPSSLSASVGDRVTITCRASQGISSDLAWYQQKPGKAPKLLIYDASSLQSGVPSRFSGSGSGTDFTLTISSLQPEDFATYYCQQYWIYPFTFGQGTKVEIKR
notes: Human IgG1 L234A L235A (LALA), expressed in HKB11 cells
B2: mAb4 (MOR11878 with IgG1 LALA Fc variant) (antibody, V domains shown)
VH: B1 VH with S54D, G55A
VL: B1 VL with I93W
notes: as for B1
B3: mAb7 (MOR11879 with IgG1 LALA Fc variant) (antibody, V domains shown)
VH: QVQLVQSGAEVKKPGASVKVSCKASGYTFTGYYMHWVRQAPGQGLEWMGMIGPQHGEAIYAQKFQGRVTMTRDTSISTAYMELSRLRSEDTAVYYCARESTDSDESPFDYWGQGTLVTVSS
VL: DIELTQPPSVSVSPGQTASITCSGDNIRSYYVSWYQQKPGQAPVLVIYDDSDRPSGIPERFSGSNSGNTATLTISGTQAEDEADYYCQSYGSHSNFVVFGGGTKLTVLG
notes: as for B1
B4: mAb10 (MOR11880 with IgG1 LALA Fc variant) (antibody, V domains shown)
VH: B3 VH with E89D
VL: B3 VL with D1S, I2Y, P8L, S13A, P14L, S19R, G76R, T77A, E80G
notes: as for B1
B5: MOR11873 (antibody, V domains shown)
VH: B1 VH
VL: B1 VL
notes: Named by its variable regions only; H/DxMS used a representative antibody of the group; also called group mAb1, mAb2, mAb3, mAb13 (MOR11873)
B6: MOR11878 (antibody, V domains shown)
VH: B1 VH with S54D, G55A
VL: B1 VL with I93W
notes: Named by its variable regions only; H/DxMS used a representative antibody of the group; also called group mAb4, mAb5, mAb6, mAb14 (MOR11878)
B7: MOR11880 (antibody, V domains shown)
VH: B3 VH with E89D
VL: B3 VL with D1S, I2Y, P8L, S13A, P14L, S19R, G76R, T77A, E80G
notes: Named by its variable regions only; H/DxMS used a representative antibody of the group; also called group mAb10, mAb11, mAb12, mAb16 (MOR11880)

Changes are numbered by the printed parent chain. In names and notes the source's numbering stands.

One test concerns the target T2, cynomolgous IL12Rβ1 naturally expressed on cells (HSC-F cells, cyno T-cells, cyno blood cells) (cynomolgus monkey, UniProt P42701 24-662 (human entry)).
T2 construct: also called cyno IL12Rβ1
In words: flow cytometry, cell binding on cyno T-cells (cyno natural expression). Here is the method:
(§1) Cell binding of selected antibodies is tested using various IL-12Rβ1 expressing cell lines, e.g. Kit 225 or HSC—F, or human and cyno T cell blasts, employing flow cytometry. After incubation with serial antibody dilutions, staining of the cells is quantified by flow cytometric analysis.
As usually defined, the EC50 is the concentration giving half of the maximal effect. Turning to B1, it took 0.055 nM to reach a half-maximal effect (EC50).
Still for that read-out and setting: under B2 stands 0.041 nM; under B3, 0.036 nM.
B4 gave an EC50 of 0.028 nM.

For the next test, the target named is T3, human IL12Rβ1 naturally expressed on cells (Kit225 cells, human T-cells, human blood cells) (human, UniProt P42701 24-662).
T3 construct: also called IL12 receptor beta 1
In words: flow cytometry, cell binding on human T-cells (human natural expression). Here is the method:
as §1
Background: A flow cytometer gives signals particle by particle.
B1 displayed a concentration for a half-maximal effect (EC50) of 0.033 nM.
B2 gave an EC50 of 0.038 nM.
Same read-out and setting: in the case of B3 it was 0.015 nM; in that of B4, 0.016 nM.

A further test has as its target T3, human IL12Rβ1 naturally expressed on …. Nature of the test: flow cytometry, cell binding on Kit225 (human natural expression). The protocol:
as §1
B1 returned an EC50 of 0.006 nM.
Still for that read-out and setting: in the case of B2 it was 0.005 nM; in that of B3, 0.01 nM.
On the same count and under the same terms, under B4 stands 0.011 nM.

Another test deals with T2, cynomolgous IL12Rβ1 naturally expressed …. In words: cell-based or functional assay.
With B1, the “IL12/IL18 dependent IFNγ production In cyno blood cells (IC50, pM)” value was found to be 239 pM.
Same read-out and setting: in the case of B2 it was 216 pM; in that of B3, 284 pM; in that of B4, 1180 pM.

In a further test the target is T3, human IL12Rβ1 naturally expressed on …. Nature of the test: cell-based or functional assay.
For the molecule B1, the “IL12/IL18 dependent IFNγ production In human blood cells (IC50, pM)” value amounted to 28 pM.
On the same count and under the same terms, under B2 stands 77 pM; under B3, 24 pM; under B4, 42 pM.

For another test, the target named is T4, human IL12Rbeta1 polypeptide (soluble receptor/antigen, construct not stated) (human, UniProt P42701 24-545).
T4 construct: the whole entry is named; also called IL12Rβ1; the receptor
In words: in vitro competitive binding assay (Bioveris/MSD); inhibition of receptor binding to coated IL12; IL12 competitive binding (first number of 8/18). The protocol:
(§2) During the assay procedure, a fixed amount (predetermined to result in near maximum signal) of the receptor was incubated with increasing concentrations (1:100 to 100:1 molar ratio) of purified Fab/IgG in solution. Subsequently, the samples were transferred to a ligand coated and blocked MSD multi-titer plate. The free receptor binds to the ligand and was detected via an appropriate ruthenium complex-labeled antibody and quantified. The concentration of bound receptor as an inverse function of Fab/IgG concentration used for incubation was fitted using the respective model. The inflection point of the fitted curve represents the IC₅₀ value.
By IC50 is commonly meant the concentration needed to halve the response being measured. On to B1, for which the concentration for half-maximal inhibition (IC50) came to 0.008 nM.

The next test deals with T2, cynomolgous IL12Rβ1 naturally expressed …. In words: flow cytometry, cell binding on HSC-F (cyno natural expression). The protocol: as §1
Molecule B1 yielded an EC50 of 0.023 nM.
For B2, the midpoint of the response, the EC50, lay at 0.013 nM.
As to B3, it took 0.023 nM to reach a half-maximal effect (EC50).

Another test concerns the target T4, human IL12Rbeta1 polypeptide (soluble …). Nature of the test: in vitro competitive binding assay (Bioveris/MSD); inhibition of receptor binding to coated IL12. Here is the method:
as §2
The molecule B2 gave an IC50 of 0.008 nM.
Still for that read-out and setting: under B3 stands 0.008 nM; under B4, 0.008 nM.

Another test shares this target. In words: in vitro competitive binding assay (Bioveris/MSD); inhibition of receptor binding to coated IL23. Here is the method: as §2
For B2, the IC50 stood at 0.013 nM.
Regarding B3, the concentration for half-maximal inhibition (IC50) came to 0.02 nM.
Still for that read-out and setting: in the case of B4 it was 0.02 nM.

For the next test, the target named is T5, cynomolgous monkey IL12Rβ1 (recombinant, construct not stated) (cynomolgus monkey, UniProt P42701 24-545 (human entry), limits assumed).
T5 construct: The SPR method describes capture of an IL12Rβ1-Fc fusion, but the cyno construct is not described; the whole entry is named; also called cyno IL12Rβ1; cynomolgus IL12Rbeta1
Nature of the test: SPR (Biacore), cyno IL12Rβ1. On the technique in general: SPR reads the build-up and loss of mass on a sensor chip optically.
In general, Kd refers to the equilibrium constant for the complex coming apart. Regarding B1, the Kd was determined as 0.1 nM.
As to B2, the Kd came out at 0.1 nM.
On the same count and under the same terms, under B3 stands 0.6 nM; under B4, 0.6 nM.

Another test concerns the target T1, mouse IL12Rbeta1. Nature of the test: not described.
B5: the binding result is given as “no binding”.
For B6, the binding result is listed as “no binding”.
The same measure, in the same setting: under B7 stands “no binding”.

Another test concerns the target T6, human IL12Rβ1-Fc-Fusion (human, UniProt P42701 24-545).
T6 construct: Captured on an anti-human-Fc chip for SPR; not shown: Fc part of the fusion
In words: SPR (Biacore), IL12Rβ1-Fc fusion captured on anti-human-Fc CM5 chip. From the text:
For determination of KD values, surface plasmon resonance technology was applied using the Biacore™ technology. Anti-human-Fc-capture CM5 chip (Biacore, Sweden) was used for capturing IL12Rβ1-Fc-Fusion followed by ligand (Fab) injection at different concentrations.
Molecule B1 had a Kd of 0.04 nM.
B2: the affinity, expressed as Kd, was 0.02 nM.
In the case of B3, the Kd worked out at 0.04 nM.
On the same count and under the same terms, in the case of B4 it was 0.04 nM.

A further test deals with T4, human IL12Rbeta1 polypeptide (soluble …). In words: in vitro competitive binding assay (Bioveris/MSD); inhibition of receptor binding to coated IL23; IL23 competitive binding (second number of 8/18). Here is the method: as §2
As to B1, the half-inhibitory concentration (IC50) was found to be 0.018 nM.

These data come from patent publication US20120082681A1 (Novartis, published 2012).
